Laboratory results reported in the supplement of paper PMC9170038.

Tested on: MS2 coat protein
Assay: apparent KD of MS2 coat protein; higher = weaker reporter binding
Conditions: Eterna round: R107
Procedure: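 RNA-MaP round R107: designed RNA switches with theophylline, tryptophan, arginine or FMN aptamers are transcribed on-chip within common flanks. They are titrated with SNAP-549-labelled MS2 coat protein in RNA-MaP buffer (100 mM Tris pH 7.5, 80 mM KCl, 4 mM MgCl2), without ligand or with the indicated ligand. Median apparent KD per design.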

[1] = input ligand: theophylline 20 uM
[2] = input ligand: tryptophan 2.4 mM
[3] = input ligand: theophylline 2 mM

Sequence | apparent KD of MS2 coat protein (input ligand: arginine 13.2 mM) | apparent KD of MS2 coat protein [1] | apparent KD of MS2 coat protein [2] | apparent KD of MS2 coat protein (input ligand: none) | apparent KD of MS2 coat protein [3]
ACGAACGAUAGUGAUACCAGACGUACAUGAGGAUCACCCAUGUUGUAAACAUGGUUAAUAGUCCCUUGGCAGCACGAUAAGUUCG [JR_ExcTheophyB_Sub003] | 104 nM | 530 nM | 802 nM |  | 
ACGAACUGUAGUGAUACCAGACGUACAUGAGGAUCACCCAUGUUGUAAACAUGGUGAAUAGUCCCUUGGCAGCACAGUUAGUUCG [#11 Exclusion-TheophyllineB] | 162 nM | 355 nM | 299 nM |  | 
ACGAACUGUAGUGAUACCAGACGUACAUGAGGAUCACCCAUGUUGUAAACAUGGUUAAUAGUCCCUUGGCAGCACAGUUAGUUCG [JR_ExcTheophyB_Sub002] | 105 nM | 612 nM | 695 nM |  | 
ACGACGCAUAGUGAUACCAGCACAACAUGAGGAUCACCCAUGUCACUUAUGUAGUAAUAAUGCCCUUGGCAGCACUAUGCGUCAG [SSTheo B #1] | 40.7 nM | 66.3 nM | 52.6 nM |  | 
ACGACGCAUAGUGAUACCAGUAGAACAUGAGGAUCACCCAUGUCUGUGACGCACAAACUCUGCCCUUGGCAGCACUAUGCGUCAG [SSTheo B #7] | 12 nM | 15.9 nM | 12.2 nM |  | 
ACGACGCAUAGUGAUACCAGUAGAACAUGAGGAUCACCCAUGUCUGUGACGCACAAAUUCUGCCCUUGGCAGCACUAUGCGUCAG [SSTheo B #6] | 12.6 nM | 18.1 nM | 12.1 nM |  | 
ACGAUACGACAUGAGGAUCACCCAUGUGAUACCAGCCUGGAAACAGGCCCUUGGCAGCACAAAUACUCCAGAAACGUAUCGAAAA [MAT - Exclusion Theophlline A - Mod of Eli - D6] | 64.9 nM | 262 nM | 156 nM |  | 
ACGAUAGCACACGAGGAUCACCCGUGUGAUACCAGCCUGGAAACAGGCCCUUGGCAGCACACAAUAAAAGUGUAACUAUCGAAUA [TheoAX4 #MicroSwitchBubble #AlternativeMS2] | 40.2 nM | 128 nM | 56.1 nM | 54.2 nM | 161 nM
ACGCCCAGGUAGGCUUAGUGGGAUAUGGAAGGAGCGCCGAUGCAGGCAGGUAGGUCGCCAUAGAACAUGAGGAUCACCCAUGUAA [#05 Same State - Arginine A] | 31.3 nM | 37.9 nM | 27.1 nM | 32.8 nM | 33.1 nM
ACGCCCGCCUCACAUGAGGAUCACCCAUGUCGAGGACCGGUACGGCCGCCACUCGUCGUCGGUAAUACGGGCGUUGAAUAAUAUA [Atedon] | 11.8 nM | 14.9 nM |  |  | 14.4 nM
ACGGAUCGGAAACGAUCCGCGGCGAGGGUGCGAGGACCGGUACGGCCGCCACUCGGCUAACAUGAGGAUCACCCAUGUCCGAAGA [ETA NuPACK+Vienna+Vienna2 #9] | 43.6 nM | 137 nM | 172 nM | 126 nM | 117 nM
ACGGAUCGGAAACGAUCCGCGGCUAGGGUGCGAGGACCGGUACGGCCGCCACUCGGGUAACAUGAGGAUCACCCAUGUCUGAUUU [ETA NP+V+V2 #14] | 50.6 nM | 116 nM | 587 nM | 123 nM | 118 nM
ACGUAAAGCAGAAGGAGCGUCUUAAUUCUACAUGAGGAUCACCCAUGUUUACAUUGAAUAUGACAGGUAGGUCGCUGAAGUACGA [JR_SSArginiB_Sub001] | 23.5 nM | 27.5 nM | 23.8 nM | 33.9 nM | 30.8 nM
ACGUAAUGCAGAAGGAGCGUCAUUCUCUUACAUGAGGAUCACCCAUGUUACAUGGUUUUAUGACAGGUAGGUCGCUGAAGUACGA [JR_SSArginiB_Sub004] | 71.4 nM | 122 nM | 86.6 nM | 105 nM | 138 nM
ACGUAAUGCAGAAGGAGCGUCGAUCUCAUACAUGAGGAUCACCCAUGUUACAUGGUUGGACGACAGGUAGGUCGCUGAAGUACGA [#06 Exclusion - Arginine B] | 24.2 nM | 35.5 nM | 21.4 nM | 20.6 nM | 27.4 nM
ACGUCACGUUUACUCGUGGUUUCGAUCGAUACCAGUAGCGAGAGUUACCCUUGGCAGCGACAUGAGGAUCACCCAUGUGCGAAGA [XTheo A #26] | 12.2 nM | 14 nM | 11.7 nM |  | 
